From the supplement of paper PMC5998384 come the findings set out here.

Data set [1] has as its system HeLa Kyoto. Put plainly: solubility change mitosis vs G1/S (difference of NP-40 vs SDS log2 ratios) (log2 ratio difference); higher = more soluble in mitosis.
Data set [2] relates to HeLa Kyoto. Put plainly: solubility in G1/S (NP-40 vs SDS abundance) (log2 ratio); higher = more soluble. As to conditions: cell cycle stage: G1/S.
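For solubility change mitosis vs G1/S (difference of NP-40 vs SDS log2 ratios) in this document: synchronized HeLa Kyoto cells (double thymidine block for G1/S, nocodazole release for mitosis), protein amounts in NP-40 versus SDS lysates quantified by mass spectrometry, three biological replicates.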
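For solubility in G1/S (NP-40 vs SDS abundance) in this document: HeLa Kyoto cells arrested at G1/S by double thymidine block, proteins quantified by TMT10plex mass spectrometry in mild NP-40 versus SDS extracts, three biological replicates.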

In the case of “MNPQQQRMAAIGTDKELSDLLDFSAMFSPPVNSGKTRPTTLGSSQFSGSGIDERGGTTSWGTSGQPSPSYDSSRGFTDSPHYSDHLNDSRLGAHEGLSPTPFMNSNLMGKTSERGSFSLYSRDTGLPGCQSSLLRQDLGLGSPAQLSSSGKPGTAYYSFSATSSRRRPLHDSAALDPLQAKKVRKVPPGLPSSVYAPSPNSDDFNRESPSYPSPKPPTSMFASTFFMQDGTHNSSDLWSSSNGMSQPGFGGILGTSTSHMSQSSSYGNLHSHDRLSYPPHSVSPTDINTSLPPMSSFHRGSTSSSPYVAASHTPPINGSDSILGTRGNAAGSSQTGDALGKALASIYSPDHTSSSFPSNPSTPVGSPSPLTGTSQWPRPGGQAPSSPSYENSLHSLQSRMEDRLDRLDDAIHVLRNHAVGPSTSLPAGHSDIHSLLGPSHNAPIGSLNSNYGGSSLVASSRSASMVGTHREDSVSLNGNHSVLSSTVTTSSTDLNHKTQENYRGGLQSQSGTVVTTEIKTENKEKDENLHEPPSSDDMKSDDESSQKDIKVSSRGRTSSTNEDEDLNPEQKIEREKERRMANNARERLRVRDINEAFKELGRMCQLHLKSEKPQTKLLILHQAVAVILSLEQQVRERNLNPKAACLKRREEEKVSAVSAEPPTTLPGTHPGLSETTNPMGHM [TCF12]”, in data set [1], the “solubility change mitosis (log2)” value is -0.221. For the same sequence, in data set [2], the “solubility in G1/S (log2)” value came out at 0.156.

As to “MNRSRAIVQRGRVLPPPAPLDTTNLAGRRTLQGRAKMASVPVYCLCRLPYDVTRFMIECDMCQDWFHGSCVGVEEEKAADIDLYHCPNCEVLHGPSIMKKRRGSSKGHDTHKGKPVKTGSPTFVRELRSRTFDSSDEVILKPTGNQLTVEFLEENSFSVPILVLKKDGLGMTLPSPSFTVRDVEHYVGSDKEIDVIDVTRQADCKMKLGDFVKYYYSGKREKVLNVISLEFSDTRLSNLVETPKIVRKLSWVENLWPEECVFERPNVQKYCLMSVRDSYTDFHIDFGGTSVWYHVLKGEKIFYLIRPTNANLTLFECWSSSSNQNEMFFGDQVDKCYKCSVKQGQTLFIPTGWIHAVLTPVDCLAFGGNFLHSLNIEMQLKAYEIEKRLSTADLFRFPNFETICWYVGKHILDIFRGLRENRRHPASYLVHGGKALNLAFRAWTRKEALPDHEDEIPETVRTVQLIKDLAREIRLVEDIFQQNVGKTSNIFGLQRIFPAGSIPLTRPAHSTSVSMSRLSLPSKNGSKKKGLKPKELFKKAERKGKESSALGPAGQLSYNLMDTYSHQALKTGSFQKAKFNITGACLNDSDDDSPDLDLDGNESPLALLMSNGSTKRVKSLSKSRRTKIAKKVDKARLMAEQVMEDEFDLDSDDELQIDERLGKEKATLIIRPKFPRKLPRAKPCSDPNRVREPGEVEFDIEEDYTTDEDMVEGVEGKLGNGSGAGGILDLLKASRQVGGPDYAALTEAPASPSTQEAIQGMLCMANLQSSSSSPATSSLQAWWTGGQDRSSGSSSSGLGTVSNSPASQRTPGKRPIKRPAYWRTESEEEEENASLDEQDSLGACFKDAEYIYPSLESDDDDPALKSRPKKKKNSDDAPWSPKARVTPTLPKQDRPVREGTRVASIETGLAAAAAKLAQQELQKAQKKKYIKKKPLLKEVEQPRPQDSNLSLTVPAPTVAATPQLVTSSSPLPPPEPKQEALSGSLADHEYTARPNAFGMAQANRSTTPMAPGVFLTQRRPSVGSQSNQAGQGKRPKKGLATAKQRLGRILKIHRNGKLLL [PHF8]”, the “solubility change mitosis (log2)” value in data set [1] stood at 0.336. For the same sequence, the “solubility in G1/S (log2)” value in data set [2] was -0.765.

With “MNSDQDVALKLAQERAEIVAKYDRGREGAEIEPWEDADYLVYKVTDRFGFLHEEELPDHNVAVERQKHLEIERTTKWLKMLKGWEKYKNTEKFHRRIYKGIPLQLRGEVWALLLEIPKMKEETRDLYSKLKHRARGCSPDIRQIDLDVNRTFRDHIMFRDRYGVKQQSLFHVLAAYSIYNTEVGYCQGMSQITALLLMYMNEEDAFWALVKLFSGPKHAMHGFFVQGFPKLLRFQEHHEKILNKFLSKLKQHLDSQEIYTSFYTMKWFFQCFLDRTPFTLNLRIWDIYIFEGERVLTAMSYTILKLHKKHLMKLSMEELVEFFQETLAKDFFFEDDFVIEQLQISMTELKRAKLDLPEPGKEDEYPKKPLGQLPPELQSWGVHHLSNGQRSVGRPSPLASGRRESGAPHRRHEHSPHPQSRTGTPERAQPPRRKSVEEESKKLKDEADFQRKLPSGPQDSSRQYNHAAANQNSNATSNIRKEFVPKWNKPSDVSATERTAKYTMEGKGRAAHPALAVTVPGPAEVRVSNVRPKMKALDAEDGKRGSTASQYDNVPGPELDSGASVEEALERAYSQSPRHALYPPSPRKHAEPSSSPSKVSNKFTFKVQPPSHARYPSQLDGEARGLAHPPSYSNPPVYHGNSPKHFPTANSSFASPQFSPGTQLNPSRRPHGSTLSVSASPEKSYSRPSPLVLPSSRIEVLPVDTGAGGYSGNSGSPKNGKLIIPPVDYLPDNRTWSEVSYTYRPETQGQSWTRDASRGNLPKYSAFQLAPFQDHGLPAVSVDSPVRYKASPAAEDASPSGYPYSGPPPPAYHYRNRDGLSIQESVLL [USP6NL]”, the “solubility change mitosis (log2)” value in data set [1] is -0.321. Also, the “solubility in G1/S (log2)” value in data set [2] is -0.388.

Take “MNSGRPETMENLPALYTIFQGEVAMVTDYGAFIKIPGCRKQGLVHRTHMSSCRVDKPSEIVDVGDKVWVKLIGREMKNDRIKVSLSMKVVNQGTGKDLDPNNVIIEQEERRRRSFQDYTGQKITLEAVLNTTCKKCGCKGHFAKDCFMQPGGTKYSLIPDEEEEKEEAKSAEFEKPDPTRNPSRKRKKEKKKKKHRDRKSSDSDSSDSESDTGKRARHTSKDSKAAKKKKKKKKHKKKHKE [ZCCHC17]”: in data set [1], the “solubility change mitosis (log2)” value is 0.661. Further, in data set [2], the “solubility in G1/S (log2)” value was -1.32.

With “MNYVGQLAGQVFVTVKELYKGLNPATLSGCIDIIVIRQPNGNLQCSPFHVRFGKMGVLRSREKVVDIEINGESVDLHMKLGDNGEAFFVQETDNDQEVIPMHLATSPILSEGASRMECQLKRGSVDRMRGLDPSTPAQVIAPSETPSSSSVVKKRRKRRRKSQLDSLKRDDNMNTSEDEDMFPIEMSSDEAMELLESSRTLPNDIPPFQDDIPEENLSLAVIYPQSASYPNSDREWSPTPSPSGSRPSTPKSDSELVSKSTERTGQKNPEMLWLWGELPQAAKSSSPHKMKESSPLSSRKICDKSHFQAIHSESSDTFSDQSPTLVGGALLDQNKPQTEMQFVNEEDLETLGAAAPLLPMIEELKPPSASVVQTANKTDSPSRKRDKRSRHLGADGVYLDDLTDMDPEVAALYFPKNGDPSGLAKHASDNGARSANQSPQSVGSSGVDSGVESTSDGLRDLPSIAISLCGGLSDHREITKDAFLEQAVSYQQFVDNPAIIDDPNLVVKIGSKYYNWTTAAPLLLAMQAFQKPLPKATVESIMRDKMPKKGGRWWFSWRGRNTTIKEESKPEQCLAGKAHSTGEQPPQLSLATRVKHESSSSDEERAAAKPSNAGHLPLLPNVSYKKTLRLTSEQLKSLKLKNGPNDVVFSVTTQYQGTCRCEGTIYLWNWDDKVIISDIDGTITRSDTLGHILPTLGKDWTHQGIAKLYHKVSQNGYKFLYCSARAIGMADMTRGYLHWVNERGTVLPQGPLLLSPSSLFSALHREVIEKKPEKFKVQCLTDIKNLFFPNTEPFYAAFGNRPADVYSYKQVGVSLNRIFTVNPKGELVQEHAKTNISSYVRLCEVVDHVFPLLKRSHSSDFPCSDTFSNFTFWREPLPPFENQDIHSASA [LPIN1]”, the “solubility change mitosis (log2)” value in data set [1] was -0.0904. Moreover, the “solubility in G1/S (log2)” value in data set [2] was 0.0583.

“MPAIAVLAAAAAAWCFLQVESRHLDALAGGAGPNHGNFLDNDQWLSTVSQYDRDKYWNRFRDDDYFRNWNPNKPFDQALDPSKDPCLKVKCSPHKVCVTQDYQTALCVSRKHLLPRQKKGNVAQKHWVGPSNLVKCKPCPVAQSAMVCGSDGHSYTSKCKLEFHACSTGKSLATLCDGPCPCLPEPEPPKHKAERSACTDKELRNLASRLKDWFGALHEDANRVIKPTSSNTAQGRFDTSILPICKDSLGWMFNKLDMNYDLLLDPSEINAIYLDKYEPCIKPLFNSCDSFKDGKLSNNEWCYCFQKPGGLPCQNEMNRIQKLSKGKSLLGAFIPRCNEEGYYKATQCHGSTGQCWCVDKYGNELAGSRKQGAVSCEEEQETSGDFGSGGSVVLLDDLEYERELGPKDKEGKLRVHTRAVTEDDEDEDDDKEDEVGYIW [SPOCK1]”: the “solubility change mitosis (log2)” value in data set [1] is 0.345. Moreover, in data set [2], the “solubility in G1/S (log2)” value was -0.59.

In the case of “MPAPPCASCHAARAALRRPLSGQALCGACFCAAFEAEVLHTVLAGRLLPPGAVVAVGASGGKDSTVLAHVLRALAPRLGISLQLVAVDEGIGGYRDAALAAVRRQAARWELPLTVVAYEDLFGGWTMDAVARSTAGSGRSRSCCTFCGVLRRRALEEGARRVGATHIVTGHNADDMAETVLMNFLRGDAGRLARGGGLGSPGEGGALPRCRPLQFASQKEVVLYAHFRRLDYFSEECVYAPEAFRGHARDLLKRLEAARPSAVLDLVHSAERLALAPAARPPRPGACSRCGALASRALCQACALLDGLNRGRPRLAIGKGRRGLDEEATPGTPGDPARPPASKAVPTF [CTU1]”, the “solubility change mitosis (log2)” value in data set [1] is 0.0895. For the same sequence, in data set [2], the “solubility in G1/S (log2)” value was 0.107.

Turning to “MPGRHVSRVRALYKRVLQLHRVLPPDLKSLGDQYVKDEFRRHKTVGSDEAQRFLQEWEVYATALLQQANENRQNSTGKACFGTFLPEEKLNDFRDEQIGQLQELMQEATKPNRQFSISESMKPKF [SDHAF3]”, the “solubility change mitosis (log2)” value in data set [1] was 0.134. Moreover, the “solubility in G1/S (log2)” value in data set [2] worked out at 0.106.

For the sequence “MPKRSCPFADVAPLQLKVRVSQRELSRGVCAERYSQEVFEKTKRLLFLGAQAYLDHVWDEGCAVVHLPESPKPGPTGAPRAARGQMLIGPDGRLIRSLGQASEADPSGVASIACSSCVRAVDGKAVCGQCERALCGQCVRTCWGCGSVACTLCGLVDCSDMYEKVLCTSCAMFET [SIVA1]”, the “solubility change mitosis (log2)” value in data set [1] is -0.098. Moreover, in data set [2], the “solubility in G1/S (log2)” value was -0.0737.

On to “MPLGLKPTCSVCKTTSSSMWKKGAQGEILCHHCTGRGGAGSGGAGSGAAGGTGGSGGGGFGAATFASTSATPPQSNGGGGGKQSKQEIHRRSARLRNTKYKSAPAAEKKVSTKGKGRRHIFKLKNPIKAPESVSTIITAESIFYKGVYYQIGDVVSVIDEQDGKPYYAQIRGFIQDQYCEKSAALTWLIPTLSSPRDQFDPASYIIGPEEDLPRKMEYLEFVCHAPSEYFKSRSSPFPTVPTRPEKGYIWTHVGPTPAITIKESVANHL [GATAD1]”, for which the “solubility change mitosis (log2)” value in data set [1] came to 0.25. Moreover, the “solubility in G1/S (log2)” value in data set [2] is -0.0455.

Consider “MPLPEPSEQEGESVKAGQEPSPKPGTDVIPAAPRKPREFSKLVLLTASDQDEDGVGSKPQEVHCVLSLEMAGPATLASTLQILPVEEQGGVVQPALEMPEQKCSKLDAAAPQSLEFLRTPFGGRLLVLESFLYKQEKAVGDKVYWKCRQHAELGCRGRAITRGLRATVMRGHCHAPDEQGLEARRQREKLPSLALPEGLGEPQGPEGPGGRVEEPLEGVGPWQCPEEPEPTPGLVLSKPALEEEEAPRALSLLSLPPKKRSILGLGQARPLEFLRTCYGGSFLVHESFLYKREKAVGDKVYWTCRDHALHGCRSRAITQGQRVTVMRGHCHQPDMEGLEARRQQEKAVETLQAGQDGPGSQVDTLLRGVDSLLYRRGPGPLTLTRPRPRKRAKVEDQELPTQPEAPDEHQDMDADPGGPEFLKTPLGGSFLVYESFLYRREKAAGEKVYWTCRDQARMGCRSRAITQGRRVTVMRGHCHPPDLGGLEALRQREKRPNTAQRGSPGGPEFLKTPLGGSFLVYESFLYRREKAAGEKVYWTCRDQARMGCRSRAITQGRRVMVMRRHCHPPDLGGLEALRQREHFPNLAQWDSPDPLRPLEFLRTSLGGRFLVHESFLYRKEKAAGEKVYWMCRDQARLGCRSRAITQGHRIMVMRSHCHQPDLAGLEALRQRERLPTTAQQEDPEKIQVQLCFKTCSPESQQIYGDIKDVRLDGESQ [FLYWCH1]”, for which, in data set [1], the “solubility change mitosis (log2)” value worked out at 0.409. For the same sequence, the “solubility in G1/S (log2)” value in data set [2] was -0.557.
